From paper PMC4989188, “Identification and characterization of chromosomal relBE toxin-antitoxin locus in Streptomyces cattleya DSM46488” (Scientific Reports, 2016)

Target: T1, RelE2sca-His6 toxin (SCATT_39270) of Streptomyces cattleya DSM 46488 (Streptomyces cattleya DSM 46488, UniProt F8K3H9 1-87)
T1 construct: also called toxin RelE2sca; not shown: His6, N-terminal, kept
T1 sequence (looked up): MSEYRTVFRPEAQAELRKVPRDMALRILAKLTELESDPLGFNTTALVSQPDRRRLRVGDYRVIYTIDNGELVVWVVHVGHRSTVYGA
Test: SEC
Details: both partners purified

B1: RelB2sca antitoxin (SCATT_39280) of Streptomyces cattleya DSM 46488 (natural protein, UniProt G8WSR4 1-89, looked up)
chain: MTQPLPMESIRDVRAHLAEVVERADRDDVPTVITRRGKQVAAVVSIEVLRKYQEWEEREINRIIDERMANPTPGVPIEDIMRETLARSE
notes: Untagged in the co-purification; Copies 2 are those in the 2:2 complex with RelE2sca-His6; In the functional row the protein was expressed from pBAD-relB2sca-relEeco in E. coli MGJ5987; also called antitoxin RelB2sca; RelBsca; source: E. coli BL21(DE3), co-expressed with RelE2sca-His6 from pACYC-relB2sca-relE2scahis, co-purified on NTA-Ni resin
  stoichiometry N: 1 RelB2sca per RelE2sca-His6 (printed as 2:2)
